According to patent US20210355221A1, “Targeting the Non-Canonical NFkB Pathway in Cancer Immunotherapy” (The General Hospital Corporation, priority 2018, published 2021):

Legend:
IL-12p40-eYFP^+ cells = experiment: Intravital imaging of MC38 tumors in IL-12p40-eYFP reporter mice; assay type: in vivo; settings: after 48 hours compared to baseline
Protocol: (§1) Tumor bearing mice, with a tumor size of approximately 75 mm^3, were treated with 200 μg of aPD-1 and/or 100 μg of aCD40 intraperitoneally for immunotherapy studies. For combination treatment studies, both aPD-1 and aCD40 were administered at the same time. For IL-12 neutralization studies, mice were dosed with 500 μg of anti-IL-12p40 Clone 17.8 daily for 5-7 days following aPD-1 therapy. Neutralization of IFN-γ in vivo was performed by administering 1 mg of anti-IFN-γ Clone XMG1.2 initially with 500 μg of anti-IFN-γ dosed daily intraperitoneally for days 1-3. The cIAP1/2 inhibitor AZD5582 (Hennessy et al., 2013) was purchased from Selleck Chem and was resuspended in sterile saline. […]
(§2) Interferon gamma reporter (IFN-γ-eYFP) or IL-12p40 reporter (IL12p40-eYFP) mice were anesthetized and dorsal skin-fold window chambers were installed as previously described (Thurber et al., 2013) and mice were treated with analgesic (Buprenorphine 0.1 mg/kg/day) for 3 days following chamber implantation. […] Anesthetized mice were kept on a heating pad kept at 37° C., vital signs monitored and mice were imaged using an Olympus FluoView FV1000MPE confocal imaging system (Olympus America). […] Sequential scanning (5 μm slices) with 405, 473, 559, and 635 nm lasers was performed using voltage and power settings that were optimized using fluorescence minus-one control mice prior to time lapse acquisition. […]

MC38 tumors = experiment: MC38 tumor model: tumor growth, survival, re-challenge; assay type: in vivo, mice; settings: for antitumor response, MC38 tumors: MC38 tumor-bearing mice, treatment as labelled
Protocol: MC38 tumor cell lines were obtained from Dr. Mark Smyth (QIMR Berghofer). MC38 cells were implanted at 2×10^6 cells in the flank. B16F10 cell lines were obtained from ATCC. B16F10 cells were implanted intradermally at 0.5×10^6 cells in the flank. All tumor models were allowed to grow for one week prior to therapy. Tumor sizes were approximately 75 mm^3 before treatment initiation, and starting tumor volumes were normalized between treatment groups. Percent tumor changes were calculated as percent difference of mouse tumor volume from pre-treatment baseline, measured using digital caliper. Lung seeding B16F10 models received 0.5×10^6 cells intravenously and were allowed to grow for 10 days from the point of implantation. Mouse tumors were allowed to grow to a maximum of 2 cm in diameter, or until tumor ulceration occurred. These were considered as endpoints for survival experiments in accordance with MGH IACUC regulations.
as §1, with “saline. Mice received a single dose of AZD5582 at 10 mg/kg, intraperitoneally.” for “saline.”
Long-term surviving mice from aPD-1 and aCD40 combination therapy were re-challenged with either MC38 or B16F10 tumors at 50 days following primary tumor rejection. […] Naive C57BL/6J mice were implanted alongside re-challenge mice, and these mice were monitored for tumor growth for 2 weeks following implantation. […]

[1] = tested on: Flt3L-derived bone marrow DCs; experiment: Flt3L-derived bone marrow DCs cultured in vitro with AZD5582, IL-12p40 transcripts; assay type: cell-based; settings: 24 hours, various concentrations of AZD5582
Protocol: FIGS. 13A-C. IL-12 Expressing Cells Express More CD40 and […] can Induce IL-12 Production In vitro. (A) Flow cytometry of MC38 tumors from IL-12p40-eYFP reporter mice, stained for CD40 expression; n=7 per group. (B) Flow cytometry of CD40 expression from the following tumor immune cell populations: Non-Antigen Presenting Cells (non-APCs, defined as F4/80−CD11c−MHCII−), macrophages (F4/80+) and IL-12+ DCs (CD11chi MHCIIhi IL-12+); n=4 per group. (C) Flt3L-derived bone marrow DCs were cultured in vitro with various concentrations of AZD5582 for 24 hours, and were harvested for RNA. Shown is fold change expression of IL-12p40 transcripts compared to untreated conditions (n=3 per condition). Results are representative of at least 2 independent experiments. ****p<0.0001; Student's two tailed t-test.

IFN-γ-eYFP^+ cells = experiment: Intravital imaging of MC38 tumors in IFN-γ-eYFP reporter mice; assay type: in vivo; settings: recombinant IL-12, by day four, in the absence of aPD-1
Protocol: as §1, §2

B16F10 melanoma = B16F10 melanoma tumor model: tumor growth, survival, re-challenge; assay type: in vivo; settings: B16F10 melanoma-bearing mice, treatment as labelled
Protocol: Tumor bearing mice, with a tumor size of approximately 75 mm^3, were treated with 200 μg of aPD-1 and/or 100 μg of aCD40 intraperitoneally for immunotherapy studies. For combination treatment studies, both aPD-1 and aCD40 were administered at the same time. […] Mice received a single dose of AZD5582 at 10 mg/kg, intraperitoneally. […]

[2] = tested on: Tumor-infiltrating CD8^+ T cells isolated from MC38 tumors; experiment: In vitro restimulation of tumor-infiltrating CD8+ T cells isolated from MC38 tumors (intracellular IFN-γ, flow cytometry); assay type: cell-based, mice; settings: aCD3/CD28 stimulation with IL-12 (20 ng/ml), 72 hours
Protocol: Tumor tissue or tumor draining lymph nodes were isolated from mice and minced using surgical scissors. Tissues were then digested using 0.2 mg/ml Collagenase II (Worthington) in RPMI 1640 media (CellGro) at 37° C. for 30 minutes and then strained through a 40 μm filter (BD Falcon). Cell suspensions were incubated with Fc Block TruStain FcX Clone 93 (Biolegend) in PBS containing 0.5% BSA and 2 mM EDTA before staining with fluorochrome labeled antibodies. Antibodies against CD11b (M1/70, Biolegend), CD8a (53-6.7, Biolegend), CD45 (30-F11, BD), F4/80 (BM8, Biolegend), CD11c (N418, Biolegend), MHC II I-A/I-E (M5/114.15.2, Biolegend), CD103 (2E7, Biolegend), IFN-γ (XMG1.2, Biolegend) were used for marker staining. 7AAD viability staining was used to exclude dead cells from analysis. Samples were run on a LSR II flow cytometer and analyzed using FlowJo software (Treestar). For intracellular cytokine staining, samples were incubated for 5 hours with GolgiPlug (BD) at 1 μl per ml of culture media. Cells were then surface stained and then fixed and permeabilized using the BD Cytofix/Cytoperm kit (BD) according to manufacturer's protocol and stained for intracellular cytokines.
MC38 tumors were digested into single cell suspensions similar to tissue processing for flow cytometry analysis and were passed through a 40 μm filter. […]

[3] = tested on: human tumor-infiltrating CD8^+ T cells; experiment: IL-12 ex vivo studies: IFN-γ ELISA of stimulated patient tumor-infiltrating CD8+ T cells; assay type: cell-based; settings: aCD3 stimulation with IL-12, six cancer patients, 3 days
Description: IL-12 ex vivo studies: Fresh tumor resections from six cancer patients undergoing surgical treatment at University Hospital Basel, Switzerland were used to assess whether IL-12 can directly activate human tumor-infiltrating CD8^+ T cells upon isolation of these cells ex vivo. Tumor tissue (two lung adenocarcinomas, three squamous cell carcinomas and one synovial sarcoma) was collected from six different patients undergoing primary surgical treatment between November 2015 and November 2017. The study was approved by the local Ethical Review Board (Ethikkommission Nordwestschweiz) and all patients consented in writing to the analysis of their tumor samples. The solid tumor lesions were mechanically dissociated and enzymatically digested using accutase (PAA), collagenase IV (Worthington), hyaluronidase (Sigma) and DNAse type IV (Sigma), directly after excision. Single cell suspensions were prepared and cryopreserved in liquid nitrogen in 90% fetal calf serum (FCS, Brunschwig Pan Biotech) and 10% dimethylsulfoxide (DMSO, Sigma) until further usage. […] Sorting purity was measured by reanalyzing the sorted cells and always reached >95% purity. […] IFN-γ secreted by these cultures was then measured by enzyme-linked immunosorbent assay according to the instructions by the manufacturer (BD, OptEIA human IFN-γ ELISA set). […]

| Molecule | fold increase of tumor-infiltrating IL-12^+ cells (IL-12p40-eYFP^+ cells) | antitumor response, MC38 tumors (MC38 tumors) | IL-12 production in vitro [1] | effect of FTY720 on the antitumor response to aPD-1 (MC38 tumors; MC38, FTY720 1.25 mg/kg i.p. daily with aPD-1) | fold increase of IFN-γ-eYFP^+ cells (IFN-γ-eYFP^+ cells) | antitumor response, B16F10 tumors (B16F10 melanoma) | IFN-γ production by stimulated CD8^+ T cells [2] | IFN-γ production by CD8^+ T cells [3] |
| --- | --- | --- | --- | --- | --- | --- | --- | --- |
| CN[C@@H](C)C(=O)N[C@H](C(=O)N1CCC[C@H]1C(=O)N[C@H]1c2ccccc2C[C@H]1OCC#CC#CCO[C@@H]1Cc2ccccc2[C@@H]1NC(=O)[C@@H]1CCCN1C(=O)[C@@H](NC(=O)[C@H](C)NC)C1CCCCC1)C1CCCCC1 [AZD5582] | 4.0±1.3 fold | provided antitumor effects in vivo | potently enhanced IL-12 production in vitro | – | – | – | – | – |
| CCCCCCCCc1ccc(CCC(N)(CO)CO)cc1 [FTY720] | – | – | – | did not affect the antitumor response to aPD-1 treatment | – | – | – | – |
| IL-12: recombinant IL-12 in mouse studies; recombinant human IL-12p70 (PeproTech) in the human ex vivo studies (protein, UniProt P29459 23-219; P29460 23-328, looked up) Interleukin-12 subunit alpha: RNLPVATPDPGMFPCLHHSQNLLRAVSNMLQKARQTLEFYPCTSEEIDHEDITKDKTSTVEACLPLELTKNESCLNSRETSFITNGSCLASRKTSFMMALCLSSIYEDLKMYQVEFKTMNAKLLMDPKRQIFLDQNMLAVIDELMQALNFNSETVPQKSSLEEPDFYKTKIKLCILLHAFRIRAVTIDRVMSYLNAS Interleukin-12 subunit beta: IWELKKDVYVVELDWYPDAPGEMVVLTCDTPEEDGITWTLDQSSEVLGSGKTLTIQVKEFGDAGQYTCHKGGEVLSHSLLLLHKKEDGIWSTDILKDQKEPKNKTFLRCEAKNYSGRFTCWWLTTISTDLTFSVKSSRGSSDPQGVTCGAATLSAERVRGDNKEYEYSVECQEDSACPAAEESLPIEVMVDAVHKLKYENYTSSFFIRDIIKPDPPKNLQLKPLKNSRQVEVSWEYPDTWSTPHSYFSLTFCVQVQGKSKREKKDRVFTDKTSATVICRKNASISVRAQDRYYSSSWSEWASVPCS | – | robust antitumor responses | – | – | 5.9±0.7 fold | substantial antitumor effect | substantially increased IFN-γ production | increased IFN-γ production by CD8^+ T cells in five out of six patients |
